Substitutions are numbered along the chain they refer to.

The target of data set [1] is T1, wild-type human CD81 large extracellular loop (human), P60033.
T1 chain: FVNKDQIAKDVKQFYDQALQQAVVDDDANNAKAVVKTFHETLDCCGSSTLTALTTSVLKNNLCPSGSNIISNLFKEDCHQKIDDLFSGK
Briefly: SEC-MALS; Superdex 200 Increase 10/300 GL, PBS with 200 mM NaCl, 0.75 mL/min, 200 µg of protein at about 2 mg/mL loaded; in-line MALS (miniDAWN TREOS II). Conditions: remark: other sources report otherwise. Background: SEC sorts molecules by how far they enter the pores of the column.

Data set [2] concerns the molecule itself. Briefly: not stated; prescreening of mutants expressed in HEK293-6E at a 2-mL scale; how the dimer was seen is not told.

B1: wild-type human CD81 large extracellular loop, P60033 113-201 (domain or fragment)
chain: T1 chain
As a reminder, the stoichiometry N is a count of units in the complex or per binding partner. The molecule B1 registered a stoichiometry N in data set [1] of 2.

B2: hCD81 LEL variant C10 (Val169Cys/Leu174Cys) (domain or fragment, human, UniProt P60033 113-201, looked up)
chain: T1 chain with V57C, L62C
notes: human CD81, large extracellular loop, fragment Phe113-Lys201; numbering according to PDB entry 1G8Q; Excluded from further analysis because of the dimer it formed; the dimer may be a disulfide-linked one (surmise); source: HEK293-6E, transfected, 2-mL scale (prescreening)
B2: the “stoichiometry N” value in data set [2] was found to be 2.

Values taken from paper PMC6160918, “Stabilization of the CD81 Large Extracellular Loop with De Novo Disulfide Bonds Improves Its Amenability for Peptide Grafting” (Pharmaceutics, 2018).
